Reference: article PMC12296736
Where two headings read alike, the source gives them in different places.

Assays:
His-nOsBZR4 (His-OsBZR4) [1] = molecular target: T1, His-nOsBZR4 (His-OsBZR4) (Oryza sativa (rice), UniProt Q6EUF1 1-108); assay: EMSA
T1 sequence: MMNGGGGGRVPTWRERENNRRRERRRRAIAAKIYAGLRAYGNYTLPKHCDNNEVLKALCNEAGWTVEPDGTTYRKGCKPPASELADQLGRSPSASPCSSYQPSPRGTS

His-nOsBZR4 (His-OsBZR4) [2] = molecular target: T1, His-nOsBZR4 (His-OsBZR4); assay: EMSA; remark: listed apart in the source

B1: YUC4-EMSA (dsDNA)
DNA 1: CGACCGAGCATATGCTCCGTGTTGGTGTATATATACTCGT
DNA 2: ACGAGTATATATACACCAACACGGAGCATATGCTCGGTCG
binding result (His-nOsBZR4 (His-OsBZR4) [1]): binds

B2: YUC11-EMSA (dsDNA)
DNA 1: TTCCGTATAAATAGCATGTGCTCTCCGA
DNA 2: TCGGAGAGCACATGCTATTTATACGGAA
binding result (His-nOsBZR4 (His-OsBZR4) [2]): binds
